According to patent publication US20080199467A1 (published 2008):

T1: S100b (UniProt P04271 2-92)
T1 chain: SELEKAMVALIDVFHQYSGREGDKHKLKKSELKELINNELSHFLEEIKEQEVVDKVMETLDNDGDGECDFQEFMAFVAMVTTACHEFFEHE

T2: amphoterin (UniProt P09429 1-215)
T2 chain: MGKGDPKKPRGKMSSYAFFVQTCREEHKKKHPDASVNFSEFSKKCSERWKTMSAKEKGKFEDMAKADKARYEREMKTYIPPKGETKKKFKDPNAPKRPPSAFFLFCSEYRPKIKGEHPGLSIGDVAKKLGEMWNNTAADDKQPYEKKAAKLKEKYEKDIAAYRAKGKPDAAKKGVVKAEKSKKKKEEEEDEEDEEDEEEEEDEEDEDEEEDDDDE


Key:
Experiment in all cases: saturation binding ELISA (immobilized ligand)
CML = molecular target: CML
S100b = molecular target: T1, S100b
amphoterin = molecular target: T2, amphoterin

Row | Binder | Kd (CML) | Kd (S100b) | Kd (amphoterin)
1 | TTP4000 (Fc fusion, N-terminal residue glutamine (Q) or pyroglutamic acid (pE) or a mixture thereof; glycosylation sites at N2 and N288 (numbering of the processed protein); C-terminal residue may be cleaved off) QNITARIGEPLVLKCKGAPKKPPQRLEWKLNTGRTEAWKVLSPQGGGPWDSVARVLPNGSLFLPAVGIQDEGIFRCQAMNRNGKETKSNYRVRVYQIPGKPEIVDSASELTAGVPNKVGTCVSEGSYPAGTLSWHLDGKPLVPNEKGVSVKEQTRRHPETGLFTLQSELMVTPARGGDPRPTFSCSFSPGLPRHRALRTAPIQPRVWEPVPLEEVQLVVEPEGGAVAPPSVFLFPPKPKDTLMISRTPEVTCVVVDVSHEDPEVKFNWYVDGVEVHNAKTKPREEQYNSTYRVVSVLTVLHQDWLNGKEYKCKVSNKALPAPIEKTISKAKGQPREPQVYTLPPSRDELTKNQVSLTCLVKGFYPSDIAVEWESNGQPENNYKTTPPVLDSDGSFFLYSKLTVDKSRWQQGNVFSCSVMHEALHNHYTQKSLSLSPGK | 75 nM |  | 
2 | RAGE fusion protein TTP-4000 (Fc fusion, N-terminal residue glutamine (Q) or pyroglutamic acid (pE) or a mixture thereof; glycosylation sites at N2 and N288 (numbering of the processed protein); C-terminal residue may be cleaved off) QNITARIGEPLVLKCKGAPKKPPQRLEWKLNTGRTEAWKVLSPQGGGPWDSVARVLPNGSLFLPAVGIQDEGIFRCQAMNRNGKETKSNYRVRVYQIPGKPEIVDSASELTAGVPNKVGTCVSEGSYPAGTLSWHLDGKPLVPNEKGVSVKEQTRRHPETGLFTLQSELMVTPARGGDPRPTFSCSFSPGLPRHRALRTAPIQPRVWEPVPLEEVQLVVEPEGGAVAPPSVFLFPPKPKDTLMISRTPEVTCVVVDVSHEDPEVKFNWYVDGVEVHNAKTKPREEQYNSTYRVVSVLTVLHQDWLNGKEYKCKVSNKALPAPIEKTISKAKGQPREPQVYTLPPSRDELTKNQVSLTCLVKGFYPSDIAVEWESNGQPENNYKTTPPVLDSDGSFFLYSKLTVDKSRWQQGNVFSCSVMHEALHNHYTQKSLSLSPGK |  | 77 nM | 40 nM
